From ChEMBL document CHEMBL3525993, “Identification of multiple binding sites for substrate transport in bovine organic anion transporting polypeptide 1a2” (Drug Metab Dispos, 2013) come the findings set out here.

The target in data set [1] is T1, OATP1A2 (Homo sapiens, UniProt P46721).
T1 sequence (P46721 whole entry): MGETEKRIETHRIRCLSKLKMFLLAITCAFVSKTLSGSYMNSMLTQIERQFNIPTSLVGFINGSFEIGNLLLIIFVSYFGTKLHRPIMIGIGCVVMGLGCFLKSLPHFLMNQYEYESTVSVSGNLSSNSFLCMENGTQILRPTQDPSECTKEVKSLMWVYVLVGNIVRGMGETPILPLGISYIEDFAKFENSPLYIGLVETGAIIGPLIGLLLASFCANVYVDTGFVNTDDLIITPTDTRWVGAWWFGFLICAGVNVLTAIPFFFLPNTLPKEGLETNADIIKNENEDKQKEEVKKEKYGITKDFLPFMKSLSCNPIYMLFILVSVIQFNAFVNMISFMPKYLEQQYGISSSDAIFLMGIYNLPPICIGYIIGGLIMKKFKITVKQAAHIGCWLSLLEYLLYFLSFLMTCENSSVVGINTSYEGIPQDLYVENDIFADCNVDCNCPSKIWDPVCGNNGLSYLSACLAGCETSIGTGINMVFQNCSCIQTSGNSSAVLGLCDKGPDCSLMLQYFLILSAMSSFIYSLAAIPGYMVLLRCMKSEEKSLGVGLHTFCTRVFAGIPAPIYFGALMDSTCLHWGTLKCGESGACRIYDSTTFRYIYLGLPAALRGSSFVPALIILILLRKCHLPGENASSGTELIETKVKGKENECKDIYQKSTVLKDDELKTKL
Nature of the data set: Cellular uptake in Xenopus oocytes cells assessed as OATP1A2 (unknown origin)-mediated drug uptake. It is filed as ADME, cell-based, Oocyte. Particulars: Xenopus oocytes expressing OATP1A2.

The target of data set [2] is T2, Solute carrier organic anion transporter family member 1A2 (Homo sapiens, UniProt P46721).
T2 sequence (P46721 whole entry): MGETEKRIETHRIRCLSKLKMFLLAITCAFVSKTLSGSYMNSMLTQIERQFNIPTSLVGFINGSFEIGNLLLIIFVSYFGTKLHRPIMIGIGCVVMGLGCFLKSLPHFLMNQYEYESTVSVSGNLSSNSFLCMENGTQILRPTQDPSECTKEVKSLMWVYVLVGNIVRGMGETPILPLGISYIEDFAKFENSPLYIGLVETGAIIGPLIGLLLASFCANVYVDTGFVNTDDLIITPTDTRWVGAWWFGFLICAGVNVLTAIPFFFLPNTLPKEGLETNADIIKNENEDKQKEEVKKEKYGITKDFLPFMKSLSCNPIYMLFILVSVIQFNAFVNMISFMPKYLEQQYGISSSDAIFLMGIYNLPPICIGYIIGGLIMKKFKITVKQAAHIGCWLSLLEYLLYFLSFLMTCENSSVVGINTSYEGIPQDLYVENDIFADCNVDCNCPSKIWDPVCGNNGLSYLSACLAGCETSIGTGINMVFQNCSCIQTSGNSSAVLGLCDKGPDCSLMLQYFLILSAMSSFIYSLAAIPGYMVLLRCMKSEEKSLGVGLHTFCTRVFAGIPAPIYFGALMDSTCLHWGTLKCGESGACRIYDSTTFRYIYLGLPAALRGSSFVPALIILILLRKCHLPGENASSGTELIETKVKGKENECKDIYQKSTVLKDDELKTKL
Put plainly: (§1) Cellular uptake in HEK293 cells assessed as human OATP1A2-mediated drug uptake at 0.05 uM after 1 min by Eadie-Hofstee plot analysis. It is filed as ADME, cell-based. The following applies: hek293, 1 min, 0.05 µM.

The target in data set [3] is T1, OATP1A2. The data set is described as §1. It is filed as ADME, cell-based. Particulars: HEK293 cells expressing human OATP1A2.
Substrate in data set [4]: C[C@]12CC[C@@H]3c4ccc(OS(=O)(=O)O)cc4CC[C@H]3[C@@H]1CCC2=O
Nature of the data set: Cellular uptake in HEK293 cells assessed as bovine high affinity site of OATP1A2-mediated drug uptake at 0.01 to 50 uM after 1 min by Eadie-Hofstee plot analysis. It counts as ADME, cell-based, Bos taurus.

Substrate in data set [5]: C[C@]12CC[C@@H]3c4ccc(OS(=O)(=O)O)cc4CC[C@H]3[C@@H]1CCC2=O
Put plainly: Cellular uptake in HEK293 cells assessed as bovine low affinity site of OATP1A2-mediated drug uptake at 0.01 to 50 uM after 1 min by Eadie-Hofstee plot analysis. It counts as ADME, cell-based, Bos taurus.

With `C[C@]12CC[C@@H]3c4ccc(OS(=O)(=O)O)cc4CC[C@H]3[C@@H]1CCC2=O` [ESTRONE SULFURIC ACID], in data set [1], the Km turned out to be 9.6 µM. The Vmax in data set [2] was 39.4 pmol/mg/min. Further, in data set [3], the Km at 1 min came to 16.1 µM.

B1: Solute carrier organic anion transporter family member (Bos taurus) (protein)
chain: MGETEERIETHRIRCLSKLKMFLLAITCAFVSKTLSGSYMNSMITQIERQFNIPTSLVGFINGSFEIGNLLLIIFVSYFGTKLHRPIMIGVGCVVMGLGCFLQSLPHFLMGRYEYESTVSVSGNLSSNSFLCMENGTQIFKPTKDPSECVKEVKSLMWVYVLVGNIIRGIGETPIMPLGISYIEDFAKFENSPLYIGLIKTGGIIGPLIGLSLASFCANVYVDTESVNTDDLTITPSDTRWVGAWWIGFLICAGVNVLTAIPFFFLPKTLPKEGLEENAEIIKNDKEKQEDIKKKRDAITKDFLPFMKSLLCNPIYMLFILISVLQFNAFVSMVSFMPKYMEQHYGKSASEAIFLLGIYNFPPICIGYIVGGLFMKKFKITAVQAAHIGCWLSFTEYLLHFLCFFMICDSSSVAGLTTSYEGIHQNLRVKNFLADCNMDCNCPTKVWDPVCGNNGLSYTSACLAGCEISSGTGRKMVFQNCSCIQTPGNSSAVLGLCDKGKDCSMMLQYFLILSVFSSFIFSLSAIPGYMVLLRCVKPEEKSLGVGLHAFCTRVLAGIPAPIYFGALVDSTCLHWGTLKCGESGACRIYDSNSFRYIYLGIPAALRGSSYIPAFLILFILRKYRLPGENASSETMLVAKFTGKENEGKEMDQNAKVLNDDELKTKL
With B1, in data set [4], the Km was determined as 0.25 µM and the Vmax was 2.45e-05 µmol/min/mg. In data set [5], the Km came out at 46.6 µM and the Vmax is 0.000375 µmol/min/mg.
